This note sets out measurements from paper PMC12838526.

The assay has as its target F-actin (polymerized rabbit skeletal muscle actin) (rabbit) (UniProt P68135). Put plainly: co-sedimentation.

“GST-Cno H+C+FAB-His6 (Cno residues 1560-2051) (domain or fragment)”: the percent co-sedimented with F-actin was found to be 32%.

For “Cno FAB peptide (residues 1967-2051), full-length form (domain or fragment)”, the percent co-sedimented with F-actin was found to be 55% and the percent co-sedimented with F-actin, αcat ABD added is 76%.
